Laboratory results published in PMC10216903, “Implication of the Transmembrane Domain in the Interleukin 10 Receptor Platform Oligomerisation” (Cells, 2023).

B1: IL-10Rα, full-length subunit of the interleukin 10 receptor (receptor, UniProt Q61727 17-575, looked up)
chain: LEFIAYGTELPSPSYVWFEARFFQHILHWKPIPNQSESTYYEVALKQYGNSTWNDIHICRKAQALSCDLTTFTLDLYHRSYGYRARVRAVDNSQYSNWTTTETRFTVDEVILTVDSVTLKAMDGIIYGTIHPPRPTITPAGDEYEQVFKDLRVYKISIRKFSELKNATKRVKQETFTLTVPIGVRKFCVKVLPRLESRINKAEWSEEQCLLITTEQYFTVTNLSILVISMLLFCGILVCLVLQWYIRHPGKLPTVLVFKKPHDFFPANPLCPETPDAIHIVDLEVFPKVSLELRDSVLHGSTDSGFGSGKPSLQTEESQFLLPGSHPQIQGTLGKEESPGLQATCGDNTDSGICLQEPGLHSSMGPAWKQQLGYTHQDQDDSDVNLVQNSPGQPKYTQDASALGHVCLLEPKAPEEKDQVMVTFQGYQKQTRWKAEAAGPAECLDEEIPLTDAFDPELGVHLQDDLAWPPPALAAGYLKQESQGMASAPPGTPSRQWNQLTEEWSLLGVVSCEDLSIESWRFAHKLDPLDCGAAPGGLLDSLGSNLVTLPLISSLQVEE
notes: Interleukin 10 receptor subunit alpha, full length; One tag per copy: Rluc fusion as donor, eYFP fusion as acceptor (plasmids pRL-CMV and pEYFP-N1); also called IL-10Rα_FL; full-length IL-10Rα; source: HEK293, transfected, in living cells
B2: IL-10Rβ, full-length subunit of the interleukin 10 receptor (receptor, UniProt Q61190 20-349, looked up)
chain: MIPPPEKVRMNSVNFKNILQWEVPAFPKTNLTFTAQYESYRSFQDHCKRTASTQCDFSHLSKYGDYTVRVRAELADEHSEWVNVTFCPVEDTIIGPPEMQIESLAESLHLRFSAPQIENEPETWTLKNIYDSWAYRVQYWKNGTNEKFQVVSPYDSEVLRNLEPWTTYCIQVQGFLLDQNRTGEWSEPICERTGNDEITPSWIVAIILIVSVLVVFLFLLGCFVVLWLIYKKTKHTFRSGTSLPQHLKEFLGHPHHSTFLLFSFPPPEEAEVFDKLSIISEESEGSKQSPEDNCASEPPSDPGPRELESKDEAPSPPHDDPKLLTSTSEV
notes: Interleukin 10 receptor subunit beta, full length; One tag per copy: Rluc fusion as donor, eYFP fusion as acceptor; also called IL-10Rβ_FL; full-length IL-10Rβ; source: HEK293, transfected, in living cells

Columns and labels:
[1] = target: IL-10Rα, full-length subunit of the interleukin 10 receptor (UniProt Q61727); test: FRET or BRET; BRET saturation assay in living HEK293 cells; full-length Rluc-tagged receptor (plasmid constant, 0.75 ng/mL) with increasing eYFP-tagged TM sequence plasmid; HBSS, coelenterazine H 5 µM, 37 °C
[2] = target: IL-10Rβ, full-length subunit of the interleukin 10 receptor (UniProt Q61190); test: as above
TM sequence of IL-10Rα = test: FRET or BRET; BRET saturation assay in living HEK293 cells; TM sequence fused to Rluc (plasmid constant, 0.75 ng/mL) with increasing eYFP-fused TM sequence plasmid, wild type or mutant; HBSS, coelenterazine H 5 µM, 37 °C
TM sequence of IL-10Rβ = test: as above
[3] = target: B2; test: FRET or BRET; BRET saturation assay in living HEK293 cells; full-length Rluc donor (plasmid constant, 0.75 ng/mL) with increasing full-length eYFP acceptor plasmid; HBSS, coelenterazine H 5 µM, 37 °C; conditions: partners not purified
[4] = target: the molecule itself; test: as above
[5] = target: B1; test: as above; conditions: partners not purified

Row | Molecule | BRET50 [1] [mBu] | BRET50 [2] [mBu] | BRET50 (TM sequence of IL-10Rα) [mBu] | BRET50 (TM sequence of IL-10Rβ) [mBu] | BRET50 [4] [mBu] | further results
1 | TM sequence of IL-10Rα (domain or fragment) | 28 | 22 | 190 | 109 | – | –
2 | TM sequence of IL-10Rα with leucine 248 substituted by glycine (domain or fragment) | – | – | – | – | – | decrease of BRET50 against the wild-type TM homodimer (TM sequence of IL-10Rα): 27 % decrease
3 | TM sequence of IL-10Rβ (domain or fragment) | 35 | 35 | 141 | 78 | – | –
4 | B1 | – | – | – | – | 28 | BRET50 [3]: 28 mBu
5 | B2 | – | – | – | – | 152 | BRET50 [5]: 86 mBu
